What is called stoichiometry N is the number of molecules, sites or subunits per partner or assembly. The term Kd denotes a measure of binding affinity in units of concentration.

Test [1] has as its target T1, recombinant CD73 (Homo sapiens, UniProt P21589). Briefly: AUC.
For test [2], the target named is T1, recombinant CD73.

T1 sequence (P21589 27-549): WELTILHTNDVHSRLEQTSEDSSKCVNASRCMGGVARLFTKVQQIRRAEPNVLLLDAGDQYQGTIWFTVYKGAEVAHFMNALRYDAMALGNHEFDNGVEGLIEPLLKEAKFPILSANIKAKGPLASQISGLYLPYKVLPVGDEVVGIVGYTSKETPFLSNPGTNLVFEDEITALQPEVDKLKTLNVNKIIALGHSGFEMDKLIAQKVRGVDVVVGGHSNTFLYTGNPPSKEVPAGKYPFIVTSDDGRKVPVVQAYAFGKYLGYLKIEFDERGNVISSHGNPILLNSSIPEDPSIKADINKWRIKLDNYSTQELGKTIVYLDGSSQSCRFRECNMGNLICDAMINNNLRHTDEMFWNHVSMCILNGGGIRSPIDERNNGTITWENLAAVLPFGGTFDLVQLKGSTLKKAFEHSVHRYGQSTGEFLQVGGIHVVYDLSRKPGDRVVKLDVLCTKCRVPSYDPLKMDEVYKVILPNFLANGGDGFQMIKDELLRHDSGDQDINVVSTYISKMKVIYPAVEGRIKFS

B1: mAb19 (antibody, V domains shown)
VH: QVQLVQSGAEVKKPGDSVKVSCKASGYTFTTYWMHWVRQAPGQGLEWMGAIYPGLSDTTYNQKFKGKVTMTRDTSTSTVYMKLSSLRSEDTAVYYCARLLDYAMDYWGQGTLVTVSS
VL: DIQMTQSPSSLSASVGDRVTITCRASQDIRSYLNWHQQKPGKAPKLLIWYTSRLHSGVPSRFSGSGSGTDYTLTISSLQPEDFATYFCQQGETLPWTFGQGTKLEIK
In the case of B1, the “stoichiometry N” value in the test with recombinant CD73 [1] is 1 mAb19 per CD73 (printed as 2:2). In addition, in the test with recombinant CD73 [2], the Kd was found to be 0.074 nM.

The record behind these values is publication PMC9398120 (Molecular Cancer Therapeutics, 2021).
